Like-named read-outs stand apart in the source and are kept apart here. Values belong to the molecule of their own block, whether it stands above or below them.
Key:
[1] = target: Pyrococcus furiosus FlaI (Pyrococcus furiosus); experiment: SEC; Superdex 200 10/300 GL; 500 µl of protein at 1 mg/ml; 20 mM Tris HCl pH 8.0, 150 mM NaCl; no nucleotide added; fractions on SDS-PAGE
[2] = target: T1, PfFlaI (Pyrococcus furiosus, UniProt Q8U3X0); experiment: fluorescence competition against bound MANT-ATP; format: binding; settings: 20 nM PfFlaI, 10 nM MANT-ATP; 5 mM MgCl2, 20 mM Tris HCl pH 8.0, 150 mM NaCl; 20 °C; Hill fit n = 0.67
T1 construct: gene PF0331; full length, His-tagged, overexpressed in E. coli Rosetta (DE3), 64 kDa subunit, nucleotide-free homohexamer
T1 sequence (Q8U3X0 entry or part of it): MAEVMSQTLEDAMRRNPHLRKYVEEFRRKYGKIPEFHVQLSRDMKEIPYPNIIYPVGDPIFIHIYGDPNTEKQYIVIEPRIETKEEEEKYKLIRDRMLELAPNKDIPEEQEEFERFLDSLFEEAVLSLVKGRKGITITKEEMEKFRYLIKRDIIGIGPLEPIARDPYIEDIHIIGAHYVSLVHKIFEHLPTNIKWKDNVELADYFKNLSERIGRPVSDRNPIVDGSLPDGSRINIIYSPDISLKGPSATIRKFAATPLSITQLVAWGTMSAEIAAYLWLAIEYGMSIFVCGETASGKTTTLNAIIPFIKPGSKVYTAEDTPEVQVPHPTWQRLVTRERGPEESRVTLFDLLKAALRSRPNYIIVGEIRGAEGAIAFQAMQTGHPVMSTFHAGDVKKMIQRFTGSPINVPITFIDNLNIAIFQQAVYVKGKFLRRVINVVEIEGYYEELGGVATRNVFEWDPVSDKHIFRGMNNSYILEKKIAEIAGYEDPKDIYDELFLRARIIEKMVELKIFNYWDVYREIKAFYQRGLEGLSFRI

[3] = target: Pyrococcus furiosus FlaI (Pyrococcus furiosus)
[4] = target: Pyrococcus furiosus FlaI (Pyrococcus furiosus); remark: listed apart in the source
[5] = target: T2, Pyrococcus furiosus FlaH (Pyrococcus furiosus, fluorescently labeled (in the microscale thermophoresis)); experiment: MST; 28 nM fluorescently labeled PfFlaH titrated with 1.3 nM-22.5 µM Pf-CTD or 5.6 nM-11.6 µM Pf-NTD; 20 mM Tris HCl pH 8.0, 150 mM NaCl, 0.05% Tween-20; Monolith NT.115 Pico; fitted to the Hill equation
T2 chain: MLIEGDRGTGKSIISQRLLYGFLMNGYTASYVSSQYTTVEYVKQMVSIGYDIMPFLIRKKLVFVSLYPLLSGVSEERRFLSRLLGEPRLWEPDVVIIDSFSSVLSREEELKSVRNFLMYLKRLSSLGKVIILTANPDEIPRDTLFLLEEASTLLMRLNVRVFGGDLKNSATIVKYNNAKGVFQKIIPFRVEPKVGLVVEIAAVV

[6] = target: T1, PfFlaI; experiment: fluorescence titration (excitation […] nm, emission […] nm); format: binding; settings: 5 mM MgCl2, 20 mM Tris HCl pH 8.0, 150 mM NaCl; 20 °C; stoichiometric titration, two sites per hexamer; labelled compound

stoichiometry N [1]: 6
Molecule: Pyrococcus furiosus FlaI (enzyme)

IC50 [2]: 260 nM
Molecule: Nc1ncnc2c1ncn2[C@@H]1O[C@H](COP(=O)(O)OP(=O)(O)OP(=O)(O)O)[C@@H](O)[C@H]1O [ATP]

ATPase activity of PfFlaI at 70 °C (malachite green) on addition of PfFlaH, proteins at 1 µM [3]: 2 fold | ATPase activity at 70 °C of 1 µM PfFlaI with increasing concentrations of PfFlaH; ratio at maximal stimulation (PfFlaH per PfFlaI) [4]: 1
Molecule: Pyrococcus furiosus FlaH (natural protein)

Kd [5]: > 8000 nM
Molecule: N-terminal domain of Pyrococcus furiosus FlaI (domain or fragment)

Molecule: CNc1ccccc1C(=O)O[C@H]1[C@@H](O)[C@H](n2cnc3c(N)ncnc32)O[C@@H]1COP(=O)(O)OP(=O)(O)OP(=O)(O)O (mixture of isomers) [MANT-ATP, 2′-/3′-O-(N-methylanthraniloyl) adenosine 5′-triphosphate]
fluorescence titration (excitation 285 nm, emission 450 nm) [6]: only two of the ATP binding sites in the hexamer are available for binding of MANT-ATP

Kd ([5]; both partners purified): 100 nM
B1: C-terminal domain of Pyrococcus furiosus FlaI (domain or fragment)
chain: LSITQLVAWGTMSAEIAAYLWLAIEYGMSIFVCGETASGKTTTLNAIIPFIKPGSKVYTAEDTPEVQVPHPTWQRLVTRERGPEESRVTLFDLLKAALRSRPNYIIVGEIRGAEGAIAFQAMQTGHPVMSTFHAGDVKKMIQRFTGSPINVPITFIDNLNIAIFQQAVYVKGKFLRRVINVVEIEGYYEELGGVATRNVFEWDPVSDKHIFRGMNNSYILEKKIAEIAGYEDPKDIYDELFLRARIIEKMVELKIFNYWDVYREIKAFYQRGLEGLSFRI

— paper PMC6011876, “Characterization of the ATPase FlaI of the motor complex of the Pyrococcus furiosus archaellum and its interactions between the ATP-binding protein FlaH” (PeerJ, 2018)
